Assay results taken from JP2019026625A (dated 2019).

Molecular target: T1, FLAGタグとイヌCD20の融合タンパク (Jurkat/cCD20 に過剰発現) (イヌ (dog), UniProt Q3C2E2 1-297)
T1 construct: whole, on cells; Overexpressed in Jurkat cells by retroviral transduction (pMx-IP); Used whole on cells for flow cytometry and as 1% NP40 cell lysate for immunoprecipitation; also called canine CD20-FLAG; not shown: FLAG tag added at the C-terminus
T1 sequence (looked up): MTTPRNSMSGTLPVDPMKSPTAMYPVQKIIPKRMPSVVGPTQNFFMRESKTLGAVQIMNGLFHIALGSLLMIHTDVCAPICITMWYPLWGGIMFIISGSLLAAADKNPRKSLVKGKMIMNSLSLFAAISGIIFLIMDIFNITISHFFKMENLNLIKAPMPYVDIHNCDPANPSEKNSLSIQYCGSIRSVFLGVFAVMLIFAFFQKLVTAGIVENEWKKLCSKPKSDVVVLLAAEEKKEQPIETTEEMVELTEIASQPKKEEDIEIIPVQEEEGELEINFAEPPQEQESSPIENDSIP
Test: flow cytometry on Jurkat/cCD20 cells, secondary antibody

binding result: binds
B1: 4E1-7抗体 (イヌCD20に対するラットモノクローナル抗体) (antibody, V domains shown)
VH: EVQLVESGGGLVQPGASLKLSCVASGFTFNDYWMSWVRQTPGKTMEWIGDIKYDGSYTNYAPSLKNRFTISRDNAKSTLYLQMSNVRSEDTATYYCTREAYYYSGDYWGQGVMVTVSS
VL: DIVLTQSPALAVSLGQRATISCKTNQNVDYYGNSYMHWYQQKPGQQPKLLIYLASNLASGIPARFSGRGSGTDFTLTIDPVEADDTATYYCQQSRNLPYTFGAGTKLELKR
notes: also called 4E1-7 antibody
